Literature values in paper PMC4927088.

Biological target: LPL (UniProt P11151)
Chain of UniProt P11151 (P11151 29-478): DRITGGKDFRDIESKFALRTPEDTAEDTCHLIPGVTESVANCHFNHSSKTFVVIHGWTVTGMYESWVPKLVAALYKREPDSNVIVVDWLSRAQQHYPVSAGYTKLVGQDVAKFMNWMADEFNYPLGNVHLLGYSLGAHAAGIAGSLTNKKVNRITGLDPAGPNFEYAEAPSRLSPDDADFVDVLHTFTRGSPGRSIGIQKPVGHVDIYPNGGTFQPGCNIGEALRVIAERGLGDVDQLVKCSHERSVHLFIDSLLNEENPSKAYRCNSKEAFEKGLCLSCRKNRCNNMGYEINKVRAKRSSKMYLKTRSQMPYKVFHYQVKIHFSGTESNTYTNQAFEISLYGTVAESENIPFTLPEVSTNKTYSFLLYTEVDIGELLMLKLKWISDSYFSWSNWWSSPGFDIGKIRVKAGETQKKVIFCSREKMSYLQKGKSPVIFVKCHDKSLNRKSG

Kd: 25 nM
Substance: GPIHBP1 (from UniProt Q8IV16)
